Assay results: patent US20110143963A1

How the values were obtained:
[1] = target: ARVCF peptide PQPVDSWV-COOH (eight-residue motif corresponding to the ARVCF C-terminus); experiment: SPR (BIAcore)
[2] = target: δ-catenin peptide PASPDSWV-COOH; experiment: SPR (BIAcore)
eSH2-3 (human) [3] = target: eSH2-3 (human) (UniProt P62993); experiment: competition phage ELISA: eSH2-3 phage pre-incubated with free pY1139 peptide, unbound phage captured
eSH2-6 (human) [4] = target: eSH2-6 (human) (UniProt P62993); experiment: competition phage ELISA: eSH2-6 phage pre-incubated with free pY1139 peptide, unbound phage captured
eSH2-3 (human) [5] = target: eSH2-3 (human) (UniProt P62993); experiment: panel B, competition phage ELISA: eSH2-3 phages incubated with free pY1139 peptide (0 to 50 nM), phages not bound to the free peptide captured and detected
eSH2-6 (human) [6] = target: eSH2-6 (human) (UniProt P62993); experiment: panel C, competition phage ELISA: eSH2-6 phages incubated with free pY1139 peptide (0 to 50 nM), phages not bound to the free peptide captured and detected
[7] = target: SH2 domain of human Grb2 (human) (UniProt P62993); experiment: panel D, competition phage ELISA: wtSH2 (Grb2-SH2) phages incubated with free pY1139 peptide (0 to about 2200 nM), phages not bound to the free peptide captured and detected
Sequence of SH2 domain of human Grb2 (human) (P62993 56-153 limits assumed): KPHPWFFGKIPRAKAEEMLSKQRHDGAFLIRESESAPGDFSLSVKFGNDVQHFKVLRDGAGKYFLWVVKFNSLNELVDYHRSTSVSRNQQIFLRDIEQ

Row | Kd [1] | Kd [2] | IC50 (eSH2-3 (human) [3]) | IC50 (eSH2-6 (human) [4]) | IC50 (eSH2-3 (human) [5]) | IC50 (eSH2-6 (human) [6]) | IC50 [7] | Substance
1 | 10 µM | 10 µM | – | – | – | – | – | PDZ domain of Erbin (wild-type) (from UniProt Q96RT1 1314-1412)
2 | – | – | 90 µM | 90 µM | 0.09 nM | 0.09 nM | 0.07 µM | pY-containing peptide corresponding to residues 1130-1146 of ErbB2 (HER2) pY1139
